{
  "source": "IntAct's records for PubMed 20553494",
  "parents": {"B1": {"name": "Homeobox protein Meis2 (Homo sapiens), O14770-4 (parent)", "chain": "MAQRYDELPHYGGMDGVGVPASMYGDPHAPRPIPPVHHLNHGPPLHATQHYGAHAPHPNVMPASMGSAVNDALKRDKDAIYGHPLFPLLALVFEKCELATCTPREPGVAGGDVCSSDSFNEDIAVFAKQVRAEKPLFSSNPELDNLMIQAIQVLRFHLLELEKVHELCDNFCHRYISCLKGKMPIDLVIDERDGSSKSDHEELSGSSTNLADHNPSSWRDHDDATSTHSAGTPGPSSGGHASQSGDNSSEQGDGLDNSVASPGTGDDDDPDKDKKRQKKRGIFPKVATNIMRAWLFQHLTHPYPSEEQKKQLAQDTGLTILQVNNWFINARRRIVQPMIDQSNRAVSQGAAYSPEGQPMGSFVLDGQQHMGIRPAGLQSMPGDYVSQGGPMGMSMAQPSYTPPQMTPHPTQLRHGPPMHSYLPSHPHHPAMMMHGGPPTHPGMTMSAQSPTMLNSVDPNVGGQVMDIHAQ", "partner": "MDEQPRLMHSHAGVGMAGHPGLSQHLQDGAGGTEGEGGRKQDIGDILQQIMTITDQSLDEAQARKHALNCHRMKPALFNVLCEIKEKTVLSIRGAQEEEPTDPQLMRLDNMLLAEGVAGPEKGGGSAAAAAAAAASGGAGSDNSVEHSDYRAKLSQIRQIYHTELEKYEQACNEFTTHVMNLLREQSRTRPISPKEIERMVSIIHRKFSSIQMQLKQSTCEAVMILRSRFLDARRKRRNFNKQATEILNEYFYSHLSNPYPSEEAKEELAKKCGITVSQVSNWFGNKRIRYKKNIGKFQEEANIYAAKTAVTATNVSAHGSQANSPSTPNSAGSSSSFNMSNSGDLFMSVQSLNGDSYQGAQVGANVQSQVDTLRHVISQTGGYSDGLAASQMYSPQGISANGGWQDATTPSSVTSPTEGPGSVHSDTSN"}},
  "data": [
    {"variants_of": "B1", "details": "with pbx1_human PBX1, P40424", "values": [
      {"variant": "MAQRYDELPHYGGMDGVGVPASMYGDPHAPRPIPPVHHLNHGPPLHATQHYGAHAPHPNVMPASMGSAVNDALKRDKDAIYGHPLFPLLALVFEKCELATCTPREPGVAGGDVCSSDSFNEDIAVFAKQVRAEKPLFSSNPELDNLMIQAIQVLRFHALELEKVHELCDNFCHRYISCLKGKMPIDLVIDERDGSSKSDHEELSGSSTNLADHNPSSWRDHDDATSTHSAGTPGPSSGGHASQSGDNSSEQGDGLDNSVASPGTGDDDDPDKDKKRQKKRGIFPKVATNIMRAWLFQHLTHPYPSEEQKKQLAQDTGLTILQVNNWFINARRRIVQPMIDQSNRAVSQGAAYSPEGQPMGSFVLDGQQHMGIRPAGLQSMPGDYVSQGGPMGMSMAQPSYTPPQMTPHPTQLRHGPPMHSYLPSHPHHPAMMMHGGPPTHPGMTMSAQSPTMLNSVDPNVGGQVMDIHAQ", "note": "[L158A]", "effect of a mutation on the interaction": "decreasing interaction"},
      {"variant": "MAQRYDELPHYGGMDGVGVPASMYGDPHAPRPIPPVHHLNHGPPLHATQHYGAHAPHPNVMPASMGSAVNDALKRDKDAIYGHPLFPLLALVFEKCELATCTPREPGVAGGDVCSSDSFNEDIAVFAKQVRAEKPLFSSNPELDNLMIQAIQVLRFHLAELEKVHELCDNFCHRYISCLKGKMPIDLVIDERDGSSKSDHEELSGSSTNLADHNPSSWRDHDDATSTHSAGTPGPSSGGHASQSGDNSSEQGDGLDNSVASPGTGDDDDPDKDKKRQKKRGIFPKVATNIMRAWLFQHLTHPYPSEEQKKQLAQDTGLTILQVNNWFINARRRIVQPMIDQSNRAVSQGAAYSPEGQPMGSFVLDGQQHMGIRPAGLQSMPGDYVSQGGPMGMSMAQPSYTPPQMTPHPTQLRHGPPMHSYLPSHPHHPAMMMHGGPPTHPGMTMSAQSPTMLNSVDPNVGGQVMDIHAQ", "note": "[L159A]", "effect of a mutation on the interaction": "decreasing interaction"}
    ]},
    {"variants_of": "B1", "details": "with pbx1_human PBX1, P40424", "remark": "another data set of the same source", "values": [
      {"variant": "MAQRYDELPHYGGMDGVGVPASMYGDPHAPRPIPPVHHLNHGPPLHATQHYGAHAPHPNVMPASMGSAVNDALKRDKDAIYGHPLFPLLALVFENCELATCTPREPGVAGGDVCSSDSFNEDIAVFAKQVRAEKPLFSSNPELDNLMIQAIQVLRFHLLELEKVHELCDNFCHRYISCLKGKMPIDLVIDERDGSSKSDHEELSGSSTNLADHNPSSWRDHDDATSTHSAGTPGPSSGGHASQSGDNSSEQGDGLDNSVASPGTGDDDDPDKDKKRQKKRGIFPKVATNIMRAWLFQHLTHPYPSEEQKKQLAQDTGLTILQVNNWFINARRRIVQPMIDQSNRAVSQGAAYSPEGQPMGSFVLDGQQHMGIRPAGLQSMPGDYVSQGGPMGMSMAQPSYTPPQMTPHPTQLRHGPPMHSYLPSHPHHPAMMMHGGPPTHPGMTMSAQSPTMLNSVDPNVGGQVMDIHAQ", "note": "[K95N]", "effect of a mutation on the interaction": "decreasing interaction"}
    ]},
    {"variants_of": "B1", "details": "with pbx1_human PBX1, P40424", "remark": "another data set of the same source", "values": [
      {"variant": "MAQRYDELPHYGGMDGVGVPASMYGDPHAPRPIPPVHHLNHGPPLHATQHYGAHAPHPNVMPASMGSAVNDALKRDKDAIYGHPLFPLLALVFEKCELATCTPREPGVAGGDVCSSDSFNEDIAVFAKQVRAEKPLFSSNPELDNLMIQAIQVARFHLLELEKVHELCDNFCHRYISCLKGKMPIDLVIDERDGSSKSDHEELSGSSTNLADHNPSSWRDHDDATSTHSAGTPGPSSGGHASQSGDNSSEQGDGLDNSVASPGTGDDDDPDKDKKRQKKRGIFPKVATNIMRAWLFQHLTHPYPSEEQKKQLAQDTGLTILQVNNWFINARRRIVQPMIDQSNRAVSQGAAYSPEGQPMGSFVLDGQQHMGIRPAGLQSMPGDYVSQGGPMGMSMAQPSYTPPQMTPHPTQLRHGPPMHSYLPSHPHHPAMMMHGGPPTHPGMTMSAQSPTMLNSVDPNVGGQVMDIHAQ", "note": "[L154A]", "effect of a mutation on the interaction": "decreasing interaction"},
      {"variant": "MAQRYDELPHYGGMDGVGVPASMYGDPHAPRPIPPVHHLNHGPPLHATQHYGAHAPHPNVMPASMGSAVNDALKRDKDAIYGHPLFPLLALVFEKCELATCTPREPGVAGGDVCSSDSFNEDIAVFAKQVRAEKPLFSSNPELDNLMIQAAQVLRFHLLELEKVHELCDNFCHRYISCLKGKMPIDLVIDERDGSSKSDHEELSGSSTNLADHNPSSWRDHDDATSTHSAGTPGPSSGGHASQSGDNSSEQGDGLDNSVASPGTGDDDDPDKDKKRQKKRGIFPKVATNIMRAWLFQHLTHPYPSEEQKKQLAQDTGLTILQVNNWFINARRRIVQPMIDQSNRAVSQGAAYSPEGQPMGSFVLDGQQHMGIRPAGLQSMPGDYVSQGGPMGMSMAQPSYTPPQMTPHPTQLRHGPPMHSYLPSHPHHPAMMMHGGPPTHPGMTMSAQSPTMLNSVDPNVGGQVMDIHAQ", "note": "[I151A]", "effect of a mutation on the interaction": "decreasing interaction"}
    ]},
    {"variants_of": "B1", "details": "with pbx1_human PBX1, P40424", "remark": "another data set of the same source", "values": [
      {"variant": "MAQRYDELPHYGGMDGVGVPASMYGDPHAPRPIPPVHHLNHGPPLHATQHYGAHAPHPNVMPASMGSAVNDALKRDKDAIYGHPLFPLLALVFEKCELATCTPREPGVAGGDVCSSDSFNEDIAVFAKQVRAEKPLFSSNPELDNLMIQAIQVLRFHLLELAKVHELCDNFCHRYISCLKGKMPIDLVIDERDGSSKSDHEELSGSSTNLADHNPSSWRDHDDATSTHSAGTPGPSSGGHASQSGDNSSEQGDGLDNSVASPGTGDDDDPDKDKKRQKKRGIFPKVATNIMRAWLFQHLTHPYPSEEQKKQLAQDTGLTILQVNNWFINARRRIVQPMIDQSNRAVSQGAAYSPEGQPMGSFVLDGQQHMGIRPAGLQSMPGDYVSQGGPMGMSMAQPSYTPPQMTPHPTQLRHGPPMHSYLPSHPHHPAMMMHGGPPTHPGMTMSAQSPTMLNSVDPNVGGQVMDIHAQ", "note": "[E162A]", "effect of a mutation on the interaction": "decreasing interaction"}
    ]},
    {"variants_of": "B1", "details": "with pbx1_human PBX1, P40424", "remark": "another data set of the same source", "values": [
      {"variant": "MAQRYDELPHYGGMDGVGVPASMYGDPHAPRPIPPVHHLNHGPPLHATQHYGAHAPHPNVMPASMGSAVNDALKRDKDAIYGHPLFPALALVFEKCELATCTPREPGVAGGDVCSSDSFNEDIAVFAKQVRAEKPLFSSNPELDNLMIQAIQVLRFHLLELEKVHELCDNFCHRYISCLKGKMPIDLVIDERDGSSKSDHEELSGSSTNLADHNPSSWRDHDDATSTHSAGTPGPSSGGHASQSGDNSSEQGDGLDNSVASPGTGDDDDPDKDKKRQKKRGIFPKVATNIMRAWLFQHLTHPYPSEEQKKQLAQDTGLTILQVNNWFINARRRIVQPMIDQSNRAVSQGAAYSPEGQPMGSFVLDGQQHMGIRPAGLQSMPGDYVSQGGPMGMSMAQPSYTPPQMTPHPTQLRHGPPMHSYLPSHPHHPAMMMHGGPPTHPGMTMSAQSPTMLNSVDPNVGGQVMDIHAQ", "note": "[L88A]", "effect of a mutation on the interaction": "decreasing interaction"}
    ]}
  ]
}
